Assay results published in US10450368.

How the values were obtained:
[1] = target: B41 SOSIP.664 gp140 trimer (HIV-1); assay: negative stain EM, 10 molar excess of Fab
[2] = target: BG505 SOSIP.664 gp140 trimer (HIV-1); assay: negative stain EM, 10 molar excess of Fab
Centromere B [3] = target: Centromere B (UniProt P07199); assay: AtheNA, Ab 25 ug/ml
Jo-1 [4] = target: Jo-1 (UniProt P12081); assay: AtheNA, Ab 25 ug/ml
Centromere B [5] = target: Centromere B (UniProt P07199); assay: AtheNA, Ab 12.5 ug/ml
Jo-1 [6] = target: Jo-1 (UniProt P12081); assay: AtheNA, Ab 12.5 ug/ml
AtheNA, Ab 12.5 ug/ml = substrate: SSB (UniProt P05455); assay: AtheNA, Ab 12.5 ug/ml
AtheNA, Ab 25 ug/ml = substrate: SSB (UniProt P05455); assay: AtheNA, Ab 25 ug/ml
Centromere B [7] = target: Centromere B (UniProt P07199); assay: AtheNA, Ab 50 ug/ml
Jo-1 [8] = target: Jo-1 (UniProt P12081); assay: AtheNA, Ab 50 ug/ml
AtheNA, Ab 50 ug/ml = substrate: SSB (UniProt P05455); assay: AtheNA, Ab 50 ug/ml
Centromere B [9] = target: Centromere B (UniProt P07199); assay: AtheNA, Ab 6.25 ug/ml
Jo-1 [10] = target: Jo-1 (UniProt P12081); assay: AtheNA, Ab 6.25 ug/ml
AtheNA, Ab 6.25 ug/ml = substrate: SSB (UniProt P05455); assay: AtheNA, Ab 6.25 ug/ml
[11] = target: CH505.TF mutant gp120 M8 (HIV-1); assay: direct-binding ELISA (OD450), panel 'CH505.TF gp120 M8'
Con S gp120 = assay: direct-binding ELISA (OD450), panel 'Con S gp120'
[12] = target: CH505.TF mutant gp120 M6 (HIV-1); assay: direct-binding ELISA (OD450), panel 'CH505.TF gp120 M6'
[13] = target: HIV-1 CH505 transmitted/founder gp120 Env (HIV-1); assay: direct-binding ELISA (OD450), panel 'CH505.TF gp120'

Sequence of Centromere B (P07199 whole entry): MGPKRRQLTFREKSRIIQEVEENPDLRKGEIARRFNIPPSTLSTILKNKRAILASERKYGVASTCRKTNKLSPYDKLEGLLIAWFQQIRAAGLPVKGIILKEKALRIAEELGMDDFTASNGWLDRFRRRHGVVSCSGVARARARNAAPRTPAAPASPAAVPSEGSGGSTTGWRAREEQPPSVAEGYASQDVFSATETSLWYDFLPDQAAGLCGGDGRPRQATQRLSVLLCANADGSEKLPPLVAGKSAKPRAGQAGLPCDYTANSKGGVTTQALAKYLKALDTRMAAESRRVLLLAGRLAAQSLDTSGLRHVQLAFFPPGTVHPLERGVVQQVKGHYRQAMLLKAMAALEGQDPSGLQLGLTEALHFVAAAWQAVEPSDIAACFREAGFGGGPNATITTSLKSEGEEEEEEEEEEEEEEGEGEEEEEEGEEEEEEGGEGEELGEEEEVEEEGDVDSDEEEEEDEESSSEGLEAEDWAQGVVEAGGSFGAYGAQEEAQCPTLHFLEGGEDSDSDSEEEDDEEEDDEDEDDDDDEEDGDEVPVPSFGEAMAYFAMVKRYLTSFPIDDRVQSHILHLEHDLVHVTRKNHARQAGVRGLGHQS
Sequence of Jo-1 (P12081 whole entry): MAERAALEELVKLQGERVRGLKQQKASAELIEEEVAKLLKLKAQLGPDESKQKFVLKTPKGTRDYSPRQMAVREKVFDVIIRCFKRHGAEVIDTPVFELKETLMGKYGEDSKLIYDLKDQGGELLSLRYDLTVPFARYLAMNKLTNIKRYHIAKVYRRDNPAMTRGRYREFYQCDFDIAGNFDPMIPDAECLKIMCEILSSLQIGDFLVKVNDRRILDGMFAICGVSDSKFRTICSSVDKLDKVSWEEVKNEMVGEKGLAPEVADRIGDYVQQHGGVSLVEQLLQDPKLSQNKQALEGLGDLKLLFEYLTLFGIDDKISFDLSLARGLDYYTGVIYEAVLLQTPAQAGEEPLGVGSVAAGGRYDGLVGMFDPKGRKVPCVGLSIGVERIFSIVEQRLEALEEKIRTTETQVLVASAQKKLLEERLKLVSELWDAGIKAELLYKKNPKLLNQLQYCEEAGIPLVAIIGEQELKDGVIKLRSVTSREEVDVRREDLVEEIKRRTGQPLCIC
Sequence of SSB (P05455 whole entry): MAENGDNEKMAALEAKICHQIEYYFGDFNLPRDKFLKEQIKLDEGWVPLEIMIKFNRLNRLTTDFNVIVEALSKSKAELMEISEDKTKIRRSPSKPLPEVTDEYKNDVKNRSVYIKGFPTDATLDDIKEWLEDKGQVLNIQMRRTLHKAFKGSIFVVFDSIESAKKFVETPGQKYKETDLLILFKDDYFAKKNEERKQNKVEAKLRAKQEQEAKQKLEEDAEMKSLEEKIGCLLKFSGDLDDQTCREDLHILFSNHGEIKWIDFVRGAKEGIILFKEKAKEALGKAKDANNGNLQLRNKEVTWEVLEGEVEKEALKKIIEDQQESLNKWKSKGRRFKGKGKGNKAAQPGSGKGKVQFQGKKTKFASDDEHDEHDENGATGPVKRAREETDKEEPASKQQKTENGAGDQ

B1: CH235.12 Fab (Fab, V domains shown)
VH: QVRLAQYGGGVKRLGATMTLSCVASGYTFNDYYIHWVRQAPGQGFELLGYIDPANGRPDYAGALRERLSFYRDKSMETLYMDLRSLRYDDTAMYYCVRNVGTAGSLLHYDHWGSGSPVIVSS
VL: EIVLTQSPATLSASPGERVTLTCRASRSVRNNVAWYQHKGGQSPRLLIYDASTRAAGVPARFSGSASGTEFTLAISNLESEDFTVYFCLQYNNWWTFGQGTRVDIK
How did the stoichiometry (Fabs per trimer) (Fabs per trimer) [1] turn out when B1 was run?
Its stoichiometry (Fabs per trimer) (Fabs per trimer) is 3.

And the stoichiometry (Fabs per trimer) (Fabs per trimer) [2]?
The stoichiometry (Fabs per trimer) (Fabs per trimer) was 3.

B2: CH236 (antibody, V domains shown)
VH: QVQLVQSGAAVKRPGASVTISCRASGYTFTTYYIHWVRQAPGQRLELMGMIDPSRGRTDYAQKFQGRVTMSRDTSTSTLYMELRSLRPDDTALYYCVRNVGTEGSLLHYDYWGQGTLVTVSS
VL: EIVLTQSPATLSVSPGERVTLSCRASQSVRNNLAWYRQKRGQAPRLLIYGASTRATGIPARFSGSGSGTEFTLTISSMQSEDFAVYYCQQYNNWWTFGQGTKVEIK
How did the AtheNA signal (relative luminescence units) (Centromere B [3]) turn out when B2 was run?
Its AtheNA signal (relative luminescence units) is 129.

And the AtheNA signal (relative luminescence units) (Jo-1 [4])?
Its AtheNA signal (relative luminescence units) is 72.

And the AtheNA signal (relative luminescence units) (Centromere B [5])?
The AtheNA signal (relative luminescence units) was 233.

What about the AtheNA signal (relative luminescence units) (Jo-1 [6]) of the same binder?
Its AtheNA signal (relative luminescence units) is 19.

What about the AtheNA signal (relative luminescence units) (AtheNA, Ab 12.5 ug/ml) of the same binder?
The AtheNA signal (relative luminescence units) was 63.

What about the AtheNA signal (relative luminescence units) (AtheNA, Ab 25 ug/ml) of the same binder?
The AtheNA signal (relative luminescence units) was 175.

What about the AtheNA signal (relative luminescence units) (Centromere B [7]) of the same binder?
Its AtheNA signal (relative luminescence units) is 84.

And the AtheNA signal (relative luminescence units) (Jo-1 [8])?
Its AtheNA signal (relative luminescence units) is 145.

What about the AtheNA signal (relative luminescence units) (AtheNA, Ab 50 ug/ml) of the same binder?
The AtheNA signal (relative luminescence units) was 207.

What about the AtheNA signal (relative luminescence units) (Centromere B [9]) of the same binder?
The AtheNA signal (relative luminescence units) was 208.

What about the AtheNA signal (relative luminescence units) (Jo-1 [10]) of the same binder?
Its AtheNA signal (relative luminescence units) is 7.

And the AtheNA signal (relative luminescence units) (AtheNA, Ab 6.25 ug/ml)?
The AtheNA signal (relative luminescence units) was 15.

B3: CH491 (antibody, V domains shown)
VH: QVQLVQSGAAVKRPGASVTISCRASGYTFTTYYIHWVRQAPGQGLELMGWINPRGGRTDYSYRFEDRVSMYRDTSMSIVYMDLRNLKSADTAVYYCVRNVGTSGSLLHYDFWGQGSLVTVSS
VL: EIVLTQSPATLSVSPGERVTLSCRASQSVRNNLAWYRQKRGQAPRLLIYGASTRATGIPARFSGSGSGTEFTLTISSMQSEDFAVYYCQQYNNWWTFGQGTKVEIK
How did the AtheNA signal (Jo-1 [4]) turn out when B3 was run?
Its AtheNA signal is 118.

And the AtheNA signal (Jo-1 [6])?
Its AtheNA signal is 79.

And the AtheNA signal (AtheNA, Ab 12.5 ug/ml)?
The AtheNA signal was 60.

What about the AtheNA signal (AtheNA, Ab 25 ug/ml) of the same binder?
Its AtheNA signal is 95.

What about the AtheNA signal (Jo-1 [8]) of the same binder?
Its AtheNA signal is 169.

And the AtheNA signal (AtheNA, Ab 50 ug/ml)?
The AtheNA signal was 144.

What about the AtheNA signal (Jo-1 [10]) of the same binder?
The AtheNA signal was 56.

What about the AtheNA signal (AtheNA, Ab 6.25 ug/ml) of the same binder?
The AtheNA signal was 42.

B4: CH493 (antibody, V domains shown)
VH: QVRLLQYGGGVKRPGASMTISCVASGYNFNDYYIHWVRQAPGQGLELMGWIDPSGGRTDYAGAFGDRVSMYRDKSMNTLYMDLRSLRSGDTAMYYCVRNVGTAGSLLHYDHWGLGVMVTVSS
VL: EIVLTQSPATLSVSPGERVTLSCRASQSVRNNLAWYRQKRGQAPRLLIYGASTRATGIPARFSGSGSGTEFTLTISSMQSEDFAVYYCQQYNNWWTFGQGTKVEIK
Which results are given for B4?
AtheNA signal (Centromere B [3]): 129; AtheNA signal (Jo-1 [4]): 167; AtheNA signal (Centromere B [5]): 165; AtheNA signal (Jo-1 [6]): 102; AtheNA signal (Centromere B [7]): 94; AtheNA signal (Jo-1 [8]): 198; AtheNA signal (Centromere B [9]): 177; AtheNA signal (Jo-1 [10]): 54

B5: CH235.9 Fab (Fab, V domains shown)
VH: QVRLLQYGGGVKRPGASMTISCVASGYNFNDYYIHWVRQAPGQGLELMGWIDPSGGRTDYAGAFGDRVSMYRDKSMNTLYMDLRSLRSGDTAMYYCVRNVGTAGSLLHYDHWGLGVMVTVSS
VL: EIVLTQSPATLSVSPGERVTLSCRASQSVRNNLAWYRQKRGQAPRLLIYGASTRATGIPARFSGSGSGTEFTLTISSMQSEDFAVYYCQQYNNWWTFGQGTKVEIK
With B5 as the binder, how does the stoichiometry (Fabs per trimer) (Fabs per trimer) [1] read?
The stoichiometry (Fabs per trimer) (Fabs per trimer) was 3.

What about the stoichiometry (Fabs per trimer) (Fabs per trimer) [2] of the same binder?
The stoichiometry (Fabs per trimer) (Fabs per trimer) was 3.

B6: CH492 (antibody, V domains shown)
VH: QVQLVQSGAAVKKPGASVRVSCKASGYTFTSSHIHWVRQAPGQGPEWMGMVDPRFGRPTYAQKFQGRVAMTRDIYTSTVYMDLRSLKSEDTAIYFCVRNAETEGSLLHIEYWGQGTRVTVSS
VL: EIVLTQSPATLSVSPGERATLSCRASQSVRSNIAWYQQKPGQAPRLLIHGASTRATGIPGRFSGSGSGPEFTLAISSVQSEDFAVYYCQQYNDWWTFGQGTKVEIK
Which EC50 (read off the curve) [11] does the source give for B6 here?
The EC50 (read off the curve) was 6 µg/mL.

What about the EC50 (read off the curve) (Con S gp120) of the same binder?
Its EC50 (read off the curve) is 5 µg/mL.

What about the EC50 (read off the curve) [12] of the same binder?
Its EC50 (read off the curve) is 0.5 µg/mL.

And the EC50 (read off the curve) [13]?
Its EC50 (read off the curve) is 0.5 µg/mL.

B7: CH241 (antibody, V domains shown)
VH: QVQLVQSGAAVKKPGASVRVSCKASGYTFTSSHIHWVRQAPGQGPEWMGMIDPSVGRPTTAGKFQGRVTMTRDRYTSTAYMDLSSLRSEDTAVYYCARSVETTGSLLYFDYWGQGTLITVSS
VL: EIVLTQSPATLSVSPGERATLSCRASQSVRSNIAWYQQKPGQAPRLLIHGASTRATGIPGRFSGSGSGPEFTLAISSVQSEDFAVYYCQQYNDWWTFGQGTKVEIK
B7 was tested. Which AtheNA signal (relative luminescence units) (Centromere B [3]) did it give?
Its AtheNA signal (relative luminescence units) is 14.

And the AtheNA signal (relative luminescence units) (Centromere B [5])?
Its AtheNA signal (relative luminescence units) is 8.

What about the AtheNA signal (relative luminescence units) (Centromere B [9]) of the same binder?
Its AtheNA signal (relative luminescence units) is 6.

B8: CH235 (antibody, V domains shown)
VH: QVQLVQSGAEVKKPGASVTVSCQASGYTFTNYYVHWVRQAPGQGLQLMGWIDPSWGRTNYAQNFQGRITMTRDTSTSTVYMEMRSLRSEDTAVYYCARNVATEGSLLHYDYWGQGTLVTVSA
VL: EIVLTQSPATLSVSPGERATLSCRASQSVRSNLAWYQQRPGQAPRLLIYGTSTRATGVPARFSGRGSGTEFTLAISSMQSEDFAVYLCLQYNNWWTFGQGTKVEIK
Which results are given for B8?
AtheNA signal (relative luminescence units) (Centromere B [3]): 6; AtheNA signal (relative luminescence units) (Centromere B [5]): 5; AtheNA signal (relative luminescence units) (Centromere B [9]): 3

B9: CH235 Fab (Fab, V domains shown)
VH: QVQLVQSGAEVKKPGASVTVSCQASGYTFTNYYVHWVRQAPGQGLQLMGWIDPSWGRTNYAQNFQGRITMTRDTSTSTVYMEMRSLRSEDTAVYYCARNVATEGSLLHYDYWGQGTLVTVSA
VL: EIVLTQSPATLSVSPGERATLSCRASQSVRSNLAWYQQRPGQAPRLLIYGTSTRATGVPARFSGRGSGTEFTLAISSMQSEDFAVYLCLQYNNWWTFGQGTKVEIK
Which stoichiometry (Fabs per trimer) (Fabs per trimer) [1] does the source give for B9 here?
The stoichiometry (Fabs per trimer) (Fabs per trimer) was 2.

What about the stoichiometry (Fabs per trimer) (Fabs per trimer) [2] of the same binder?
Its stoichiometry (Fabs per trimer) (Fabs per trimer) is 1.
